In paper PMC2800831:

Columns and labels:
[1] = target: Recombinant mouse fibulin-5 (mouse) (UniProt Q9WVH9); test: SPR
[2] = target: Recombinant mouse fibulin-2 (mouse) (UniProt P37889); test: SPR
Sequence of UniProt P37889 (P37889 27-1221): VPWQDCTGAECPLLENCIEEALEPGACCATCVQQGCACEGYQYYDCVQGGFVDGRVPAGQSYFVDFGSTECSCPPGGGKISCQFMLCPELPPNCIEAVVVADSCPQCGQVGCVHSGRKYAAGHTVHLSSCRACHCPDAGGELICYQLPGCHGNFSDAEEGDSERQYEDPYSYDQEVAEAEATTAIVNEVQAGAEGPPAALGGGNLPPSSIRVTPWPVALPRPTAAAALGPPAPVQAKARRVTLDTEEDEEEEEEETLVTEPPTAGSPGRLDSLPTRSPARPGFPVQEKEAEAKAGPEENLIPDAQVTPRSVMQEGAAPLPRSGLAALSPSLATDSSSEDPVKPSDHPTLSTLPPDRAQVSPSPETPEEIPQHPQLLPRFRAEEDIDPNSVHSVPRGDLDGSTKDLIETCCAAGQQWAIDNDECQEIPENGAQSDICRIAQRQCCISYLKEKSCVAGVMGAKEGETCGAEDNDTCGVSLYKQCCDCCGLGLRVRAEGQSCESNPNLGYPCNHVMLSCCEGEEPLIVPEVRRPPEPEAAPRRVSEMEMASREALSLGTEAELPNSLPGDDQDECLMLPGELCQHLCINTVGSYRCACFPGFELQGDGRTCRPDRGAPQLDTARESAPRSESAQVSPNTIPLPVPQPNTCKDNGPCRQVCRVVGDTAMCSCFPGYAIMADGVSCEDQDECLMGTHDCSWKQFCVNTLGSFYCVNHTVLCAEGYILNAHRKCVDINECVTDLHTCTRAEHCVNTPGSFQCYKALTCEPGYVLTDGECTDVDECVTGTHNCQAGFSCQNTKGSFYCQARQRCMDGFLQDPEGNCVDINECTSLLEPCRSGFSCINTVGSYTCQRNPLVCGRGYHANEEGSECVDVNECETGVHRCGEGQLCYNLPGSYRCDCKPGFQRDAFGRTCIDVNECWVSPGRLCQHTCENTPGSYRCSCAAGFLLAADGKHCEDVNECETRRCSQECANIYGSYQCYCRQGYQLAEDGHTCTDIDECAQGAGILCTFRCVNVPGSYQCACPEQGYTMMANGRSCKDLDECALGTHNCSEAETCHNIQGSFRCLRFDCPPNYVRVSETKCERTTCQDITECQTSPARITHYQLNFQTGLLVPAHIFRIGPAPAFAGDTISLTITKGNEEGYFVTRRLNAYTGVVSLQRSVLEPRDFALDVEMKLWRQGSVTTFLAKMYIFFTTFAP

Sequence of UniProt Q9WVH9 (Q9WVH9 24-448): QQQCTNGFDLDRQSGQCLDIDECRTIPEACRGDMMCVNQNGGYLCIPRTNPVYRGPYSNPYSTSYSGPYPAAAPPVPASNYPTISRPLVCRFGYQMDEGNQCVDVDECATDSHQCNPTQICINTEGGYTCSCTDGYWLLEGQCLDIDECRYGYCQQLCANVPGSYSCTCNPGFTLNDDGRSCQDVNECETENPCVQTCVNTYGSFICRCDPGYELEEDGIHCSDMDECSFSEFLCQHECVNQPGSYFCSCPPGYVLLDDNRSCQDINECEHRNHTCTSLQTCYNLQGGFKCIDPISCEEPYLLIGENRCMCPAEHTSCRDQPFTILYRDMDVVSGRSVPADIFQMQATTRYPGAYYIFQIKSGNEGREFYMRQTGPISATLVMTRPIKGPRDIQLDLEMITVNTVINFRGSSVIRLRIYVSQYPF

| Kd [1] | Kd [2] | Substance |
| --- | --- | --- |
| 100 nM |  | Recombinant mouse fibulin-2 (from UniProt P37889 27-1221) (natural protein) |
|  | 1650 nM | Recombinant mouse fibulin-5 (from UniProt Q9WVH9 24-448) (natural protein) |
